# Assay results taken from PMC3466309, “Initial Characterization of the Pf-Int Recombinase from the Malaria Parasite Plasmodium falciparum”.
# T1: Pf-Int-C192 (Plasmodium falciparum 3D7, UniProt C0H5A8 192-490)
# T1 sequence: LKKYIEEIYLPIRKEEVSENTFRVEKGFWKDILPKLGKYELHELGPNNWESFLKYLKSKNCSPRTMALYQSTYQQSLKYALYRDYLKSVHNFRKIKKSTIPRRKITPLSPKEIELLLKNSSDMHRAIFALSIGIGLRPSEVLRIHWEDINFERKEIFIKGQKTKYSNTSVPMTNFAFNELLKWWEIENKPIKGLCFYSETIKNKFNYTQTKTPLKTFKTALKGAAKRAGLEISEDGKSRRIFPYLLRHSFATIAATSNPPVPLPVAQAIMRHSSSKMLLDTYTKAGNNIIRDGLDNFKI
# T2: His6-Pf-Int-C192 (Plasmodium falciparum 3D7, UniProt C0H5A8 192-490)
# T2 sequence: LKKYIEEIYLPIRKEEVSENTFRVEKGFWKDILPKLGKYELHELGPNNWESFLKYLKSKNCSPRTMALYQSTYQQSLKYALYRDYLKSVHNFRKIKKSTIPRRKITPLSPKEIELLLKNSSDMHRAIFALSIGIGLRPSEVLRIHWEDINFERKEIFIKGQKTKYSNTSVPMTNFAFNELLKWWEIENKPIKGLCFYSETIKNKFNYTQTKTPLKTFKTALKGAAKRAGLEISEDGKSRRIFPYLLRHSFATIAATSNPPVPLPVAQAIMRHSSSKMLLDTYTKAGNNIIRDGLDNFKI
# T3: Pf-Int-C162 (Plasmodium falciparum 3D7, UniProt C0H5A8 162-490)
# T3 sequence: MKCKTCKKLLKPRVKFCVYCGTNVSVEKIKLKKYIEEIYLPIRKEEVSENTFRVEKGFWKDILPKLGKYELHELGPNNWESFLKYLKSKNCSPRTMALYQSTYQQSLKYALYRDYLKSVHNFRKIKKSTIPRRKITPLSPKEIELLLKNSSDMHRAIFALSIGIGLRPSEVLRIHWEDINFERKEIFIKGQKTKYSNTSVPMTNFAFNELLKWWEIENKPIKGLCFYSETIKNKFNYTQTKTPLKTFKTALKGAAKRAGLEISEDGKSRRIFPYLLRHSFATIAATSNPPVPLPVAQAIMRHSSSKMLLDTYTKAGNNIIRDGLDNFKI
# How the values were obtained:
# [1] = target: T1, Pf-Int-C192; experiment: EMSA; 10 ug/ml poly(dI-dC); max shift at ~15-fold higher protein/DNA ratio than without; EMSA: 50 mM Tris pH 8, 150 mM NaCl, 0.1 mM EDTA, 5 mM DTT, 50 ug/ml BSA, 2% glycerol, 0.5% Tween 20, 10 ug/ml poly(dI-dC) unless omitted, 10 nM DNA, 20 min at 20 C; 5% gel in 0.5x TBE at 18 C; details: protein: recombinant; label: 5'-DY682 on strand 1; blunt
# [2] = target: T2, His6-Pf-Int-C192; experiment: EMSA supershift; 0.04 or 0.2 uM protein; anti-Pf-Int disrupts, anti-His5 supershifts; EMSA: 50 mM Tris pH 8, 150 mM NaCl, 0.1 mM EDTA, 5 mM DTT, 50 ug/ml BSA, 2% glycerol, 0.5% Tween 20, 10 ug/ml poly(dI-dC) unless omitted, 10 nM DNA, 20 min at 20 C; 5% gel in 0.5x TBE at 18 C; details: protein: recombinant; tags: N-terminal His6; label: 5'-DY682 on strand 1; blunt
# [3] = target: T3, Pf-Int-C162; experiment: EMSA; 10 ug/ml poly(dI-dC); EMSA: 50 mM Tris pH 8, 150 mM NaCl, 0.1 mM EDTA, 5 mM DTT, 50 ug/ml BSA, 2% glycerol, 0.5% Tween 20, 10 ug/ml poly(dI-dC) unless omitted, 10 nM DNA, 20 min at 20 C; 5% gel in 0.5x TBE at 18 C; details: protein: recombinant; tags: N- or C-terminal His6 versions; label: 5'-DY682 on strand 1; blunt
binder,measurement,setting,value
Selex8 (dsDNA) DNA 1: CAAACACACTGTGCGCGCGTCG DNA 2: CGACGCGCGCACAGTGTGTTTG,binding result,[1],binds
same,binding result,[2],binds
same,binding result,[3],no binding
